Experimental data: US20260242478A1 (published 2026)
Where no end group is shown, it is not given here.

B1: Phage-1925 (peptide)
peptide: TEMWCKPAWMCTGF
notes: Clonal phage of the Peptide-180 library, tested as crude supernatant; not shown: fused to the pIII filament protein of the bacteriophage
B2: Phage-1932 (peptide)
peptide: DFKWCTPMWMCEHL
notes: as for B1
B3: Phage-1928 (peptide)
peptide: ELHLCIPRGMCKFR
notes: as for B1
B4: Phage-1922 (peptide)
peptide: LVNWCIPMWMCEGF
notes: as for B1
B5: Phage-1931 (peptide)
peptide: WDRLCTPAWMCTGF
notes: as for B1
B6: Phage-1923 (peptide)
peptide: VEKWCIPTWMCELS
notes: as for B1
B7: Phage-1934 (peptide)
peptide: VSIWCRPAWMCESG
notes: as for B1
B8: Phage-1926 (peptide)
peptide: FAKWCTPEWMCVGF
notes: as for B1
B9: Phage-1927 (peptide)
peptide: WENWCTPAWMCSHM
notes: as for B1
B10: Phage-1935 (peptide)
peptide: VEKLCKPIWMCNWQ
notes: as for B1
B11: Phage-1933 (peptide)
peptide: VVQWCIPAWMCAAQ
modifications: cysteine pairing not given here; also: displayed as fusion to phage pIII
notes: as for B1
B12: Phage-1930 (peptide)
peptide: VQNWCIPAWMCQGM
notes: as for B1
B13: Phage-1929 (peptide)
peptide: AEKWCIPAWMCEAM
notes: as for B1
B14: Phage-1921 (peptide)
peptide: VDRWCVPVWMCEGL
modifications: cysteine pairing not given here; also: displayed as fusion to phage pIII
notes: as for B1
B15: Phage-1924 (peptide)
peptide: TEKLCIPEWMCFGM
notes: as for B1
B16: Phage-1904 (peptide)
peptide: DVKWCIPAWMCEGF
modifications: cysteine pairing not given here; also: displayed as fusion to phage pIII
notes: Peptide-180 library clone, tested as clonal phage supernatant; not shown: pIII of the bacteriophage to which the peptide is fused
B17: Phage-1905 (peptide)
peptide: EIRLCTPSWMCMGF
modifications: cysteine pairing not given here; also: displayed as fusion to phage pIII
notes: as for B16

Target: T1, Anti-PSMA Fab (SEQ ID NOs: 19, 20)
T1 construct: Biotinylated PSMA Fab captured on neutravidin coated plates in the phage ELISA; also called 006 PSMA Fab
Assay: phage binding ELISA; clonal phage supernatant on biotinylated PSMA Fab captured on neutravidin plates, anti-M13 HRP detection

Binder | Anti-PSMA Fab (SEQ ID NOs: 19, 20) signal
VMKWCIPEWMCYML [Phage-1906] | 2.02
SAHMCIPPWMCLHT [Phage-1907] | 2.02
FTIWCIPEWMCLHE [Phage-1916] | 2
VIKWCTPAWMCTAL [Phage-1914] | 2
GEYWCIPSWMCQLY [Phage-1920] | 1.99
GDPWCIPAWMCMEF [Phage-1911] | 2.01
WDNWCIPPWMCIGF [Phage-1908] | 2.02
SFAWCIPPWMCEIT [Phage-1915] | 2
EKIWCVPAWMCTWL [Phage-1918] | 1.99
ESIRCIPLWMCEGF [Phage-1913] | 2
MMKWCTPAWMCEEA [Phage-1909] | 2.01
GDILCRPEWMCTGF [Phage-1910] | 2.01
MMKWCIPTWMCEME [Phage-1912] | 2
VSKLCIPMWMCETS [Phage-1919] | 1.99
IEKMCKPAWMCWAD [Phage-1917] | 2

Target: T2, Anti-PSMA Fab (SEQ ID NOs: 19, 20) (biotinylated (site not stated))
T2 construct: also called 006 PSMA Fab
Assay: phage ELISA; biotinylated PSMA Fab on neutravidin plate, wells pre-incubated with PSMA antigen as competitor, anti-M13 HRP detection

Binder | Phage binding ELISA, Anti-PSMA Fab signal in the presence of PSMA
B1 | 0.0938
B2 | 0.106
B3 | 0.0668
B4 | 0.107
B5 | 0.104
B6 | 0.0767
B7 | 0.0809
B8 | 0.125
B9 | 0.1
B10 | 0.0992
B11 | 0.0955
B12 | 0.0574
B13 | 0.0668
B14 | 0.124
B15 | 0.0644

Target: T3, Anti-PSMA Fab (SEQ ID NOs: 19, 20)
T3 construct: also called 006 PSMA Fab
Assay: phage binding ELISA; clonal phage supernatant on biotinylated PSMA Fab captured on neutravidin plate, wells pre-incubated with PSMA antigen (competitor: PSMA); anti-M13-HRP detection

Binder | Anti-PSMA Fab signal in the presence of PSMA
FPKWCTPAWMCERS [Phage-1937] | 0.0909
WENWCRPEWMCTGL [Phage-1940] | 0.0907
DGKWCIPPWMCQST [Phage-1944] | 0.077
WENWCTPRWMCEGF [Phage-1945] | 0.173
LEKWCIPTWMCELF [Phage-1943] | 0.175
VEKWCVPQWMCGQM [Phage-1942] | 0.0869
VEKLCRPSWMCEHM [Phage-1939] | 0.0564
WPKWCTPPWMCFQD [Phage-1936] | 0.148
MEKWCIPSWMCDVN [Phage-1938] | 0.0785
GEKWCIPEWMCTTW [Phage-1941] | 0.135

Target: T4, Anti-PSMA Fab (SEQ ID NOs: 19, 20)
T4 construct: Biotinylated and captured on neutravidin coated plates in the phage ELISA; also called 006 PSMA Fab
Assay: phage binding ELISA on captured PSMA Fab; competitor PSMA antigen pre-incubated in the well

Binder | Anti-PSMA Fab signal in the presence of PSMA
B16 | 0.105
B17 | 0.0792

Target: T3, Anti-PSMA Fab (SEQ ID NOs: 19, 20)
Assay: phage binding ELISA; clonal phage supernatant on biotinylated PSMA Fab captured on neutravidin plate; anti-M13-HRP detection

Binder | Anti-PSMA Fab (SEQ ID NOs: 19, 20) signal
FPKWCTPAWMCERS [Phage-1937] | 1.96
WENWCRPEWMCTGL [Phage-1940] | 1.95
DGKWCIPPWMCQST [Phage-1944] | 1.94
WENWCTPRWMCEGF [Phage-1945] | 1.94
LEKWCIPTWMCELF [Phage-1943] | 1.94
VEKWCVPQWMCGQM [Phage-1942] | 1.95
VEKLCRPSWMCEHM [Phage-1939] | 1.96
WPKWCTPPWMCFQD [Phage-1936] | 1.96
MEKWCIPSWMCDVN [Phage-1938] | 1.96
GEKWCIPEWMCTTW [Phage-1941] | 1.95

Target: T1, Anti-PSMA Fab (SEQ ID NOs: 19, 20)
Assay: phage binding ELISA on captured PSMA Fab pre-incubated with PSMA antigen as competitor, anti-M13 HRP detection

Binder | Anti-PSMA Fab signal in the presence of PSMA
VMKWCIPEWMCYML [Phage-1906] | 0.204
SAHMCIPPWMCLHT [Phage-1907] | 0.133
FTIWCIPEWMCLHE [Phage-1916] | 0.0999
VIKWCTPAWMCTAL [Phage-1914] | 0.0733
GEYWCIPSWMCQLY [Phage-1920] | 0.179
GDPWCIPAWMCMEF [Phage-1911] | 0.088
WDNWCIPPWMCIGF [Phage-1908] | 0.186
SFAWCIPPWMCEIT [Phage-1915] | 0.127
EKIWCVPAWMCTWL [Phage-1918] | 0.121
ESIRCIPLWMCEGF [Phage-1913] | 0.0894
MMKWCTPAWMCEEA [Phage-1909] | 0.0691
GDILCRPEWMCTGF [Phage-1910] | 0.111
MMKWCIPTWMCEME [Phage-1912] | 0.132
VSKLCIPMWMCETS [Phage-1919] | 0.064
IEKMCKPAWMCWAD [Phage-1917] | 0.0706

Target: T4, Anti-PSMA Fab (SEQ ID NOs: 19, 20)
Assay: phage binding ELISA; biotinylated PSMA Fab on neutravidin plate, bound phage detected with anti-M13 HRP

Binder | Anti-PSMA Fab (SEQ ID NOs: 19, 20) signal
B16 | 2.02
B17 | 2.02

Target: T2, Anti-PSMA Fab (SEQ ID NOs: 19, 20)
Assay: phage ELISA; biotinylated PSMA Fab on neutravidin plate, clonal phage supernatant, anti-M13 HRP detection;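 further: wells preincubated with PSMA antigen in blocking buffer or with blocking buffer only before clonal phage were added for a short incubation, then bound phage detected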

Binder | Phage binding ELISA, Anti-PSMA Fab (SEQ ID NOs: 19, 20) signal
B1 | 1.99
B2 | 1.97
B3 | 1.98
B4 | 1.99
B5 | 1.97
B6 | 1.99
B7 | 1.97
B8 | 1.99
B9 | 1.98
B10 | 1.96
B11 | 1.97
B12 | 1.98
B13 | 1.98
B14 | 1.99
B15 | 1.99
